Experimental data as given in patent US20030036642, “Platelet derived growth factor (PDGF) nucleic acid ligand complexes” (published 2003).
Substitutions are numbered along the chain they refer to.

B1: 36ta (ssDNA)
DNA: CAGGCTACGGCACGTAGAGCATCACCATGATCCTGT
modifications: 3'-3' inverted T at nt 36
B2: 1266 (ssDNA)
DNA: CACAGGCUACGGCACGTAGAGCAUCACCATGATCCUGUG
modifications: 2'-F U8,U24,C25,C34,C35; 2'-OMe C10,G11,G12,C13,A14,A26,C27,C28,A29,U36,G37,U38,G39; 3'-3' inverted T at nt 40
B3: 1295 (ssDNA)
DNA: CAGGCUACGGCACGTAGAGCAUCACCATGATCCUG
modifications: 2'-F U6,U22,C23,C32,C33; 2'-OMe C8,G9,G10,C11,A12,A24,C25,C26,A27,U34,G35; 3'-3' inverted T at nt 36
B4: 1369 (ssDNA)
DNA: B3 DNA
modifications: 2'-F U6,U22,C23,C32,C33; 2'-OMe C8,G9,G10,C11,A12,G17,G19,A24,C25,C26,A27,U34,G35; 3'-3' inverted T at nt 36
B5: 1327 (ssDNA)
DNA: B3 DNA
modifications: 2'-F U6,U22,C23,C32,C33; 2'-OMe C8,G9,G10,C11,A12,G19,A24,C25,C26,A27,U34,G35; 3'-3' inverted T at nt 36
B6: 1374 (ssDNA)
DNA: B3 DNA
modifications: 2'-F U6,U22,C23,C32,C33; 2'-OMe A7,C8,G9,G10,C11,A12,G17,G19,A24,C25,C26,A27,U34,G35; 3'-3' inverted T at nt 36
B7: 1304 (ssDNA)
DNA: B3 DNA
modifications: 2'-OMe C5,U6,A7,C8,G9,G10,C11,A12,U22,C23,A24,C25,C26,A27,C32,C33,U34,G35; 3'-3' inverted T at nt 36
B8: 1306 (ssDNA)
DNA: B3 DNA
modifications: 2'-OMe C5,U6,C8,G9,G10,C11,A12,G19,U22,C23,A24,C25,C26,A27,C32,C33,U34,G35; 3'-3' inverted T at nt 36
B9: 1303 (ssDNA)
DNA: B3 DNA
modifications: 2'-F U6; 2'-OMe C8,G9,G10,C11,A12,U22,C23,A24,C25,C26,A27,C32,C33,U34,G35; 3'-3' inverted T at nt 36
B10: 1329 (ssDNA)
DNA: B3 DNA
modifications: 2'-F U6,U22,C23,C32,C33; 2'-OMe C8,G9,G10,C11,A12,G17,G19,C20,A24,C25,C26,A27,U34,G35; 3'-3' inverted T at nt 36
B11: 1305 (ssDNA)
DNA: B3 DNA
modifications: 2'-OMe C5,U6,C8,G9,G10,C11,A12,A18,U22,C23,A24,C25,C26,A27,C32,C33,U34,G35; 3'-3' inverted T at nt 36
B12: 1328 (ssDNA)
DNA: B3 DNA
modifications: 2'-F U6,U22,C23,C32,C33; 2'-OMe C8,G9,G10,C11,A12,G19,C20,A24,C25,C26,A27,U34,G35; 3'-3' inverted T at nt 36
B13: 1074 (ssDNA)
DNA: CACAGGCTACGGCACGUAGAGCATCACCATGATCCTGTG
modifications: 2'-OMe C10,G11,G12,C13,A14,C15,G16,U17; 3'-3' inverted T at nt 40
B14: 1159 (ssDNA)
DNA: B13 DNA with U17T
modifications: 2'-F U24; 3'-3' inverted T at nt 40
B15: 1257 (ssDNA)
DNA: B13 DNA with U17T, T38U
modifications: 2'-OMe C10,G11,G12,C13,A14,A26,C27,C28,A29,G37,U38,G39; 2'-F C34; 3'-3' inverted T at nt 40
B16: EV2 (ssDNA)
DNA: B13 DNA
modifications: 2'-OMe G12,C13,A14,C15,G16,U17; 3'-3' inverted T at nt 40
B17: 1142 (ssDNA)
DNA: B13 DNA with T24U
modifications: 2'-OMe U17,A23,U24; 3'-3' inverted T at nt 40
B18: EV5 (ssDNA)
DNA: B2 DNA with U8T, U24T
modifications: 2'-OMe U36,G37,U38,G39; 3'-3' inverted T at nt 40
B19: 1166 (ssDNA)
DNA: B13 DNA with U17T
modifications: 2'-F U17; 3'-3' inverted T at nt 40
B20: 1076 (ssDNA)
DNA: B13 DNA with T30U
modifications: 2'-OMe C1,A2,C3,C10,G11,G12,C13,A14,C15,G16,U17,A26,C27,C28,A29,U30; 3'-3' inverted T at nt 40
B21: 1148 (ssDNA)
DNA: B13 DNA with T8U, U17T
modifications: 2'-OMe A4,G5,G6,C7,U8,A9; 3'-3' inverted T at nt 40
B22: 1163 (ssDNA)
DNA: B13 DNA with U17T
modifications: 2'-F U30; 3'-3' inverted T at nt 40
B23: 1164 (ssDNA)
DNA: B13 DNA with U17T
modifications: 2'-F U8; 3'-3' inverted T at nt 40
B24: 1158 (ssDNA)
DNA: B13 DNA with U17T
modifications: 2'-F U33; 3'-3' inverted T at nt 40
B25: 1265 (ssDNA)
DNA: B2 DNA with U8T, U24T
modifications: 2'-OMe C10,G11,G12,C13,A14,C25,A26,C27,C28,A29,U36,G37,U38,G39; 2'-F C34; 3'-3' inverted T at nt 40
B26: 1075 (ssDNA)
DNA: B13 DNA with U17T, T30U
modifications: 2'-OMe A26,C27,C28,A29,U30; 3'-3' inverted T at nt 40
B27: 1269 (ssDNA)
DNA: B2 DNA with U24T
modifications: 2'-F U8,C34; 2'-OMe C10,G11,G12,C13,A14,C25,A26,C27,C28,A29,U36,G37,U38,G39; 3'-3' inverted T at nt 40
B28: 1144 (ssDNA)
DNA: B13 DNA with U17T, T33U, T36U
modifications: 2'-OMe G31,A32,U33,C34,C35,U36; 3'-3' inverted T at nt 40
B29: 1267 (ssDNA)
DNA: B2 DNA with U8T, U24T
modifications: 2'-OMe C10,G11,G12,C13,A14,C25,A26,C27,C28,A29,U36,G37,U38,G39; 2'-F C34,C35; 3'-3' inverted T at nt 40
B30: 1145 (ssDNA)
DNA: CACAGGCTACGGCACGTAGAGCATCACCATGATCCTGTGT
modifications: 2'-OMe C25,A26,C27,C28,A29; 3'-3' inverted T at nt 40
B31: 1165 (ssDNA)
DNA: B30 DNA
modifications: 2'-F C35; 3'-3' inverted T at nt 40
B32: 1157 (ssDNA)
DNA: B30 DNA
modifications: 2'-F C7; 3'-3' inverted T at nt 40
B33: EV4 (ssDNA)
DNA: B30 DNA
modifications: 2'-OMe C1,A2,C3,A4; 3'-3' inverted T at nt 40
B34: EV3 (ssDNA)
DNA: B30 DNA
modifications: 2'-OMe C10,G11,G12,C13,A14; 3'-3' inverted T at nt 40
B35: 1149 (ssDNA)
DNA: B30 DNA
modifications: 2'-OMe G19,A20,G21,C22; 3'-3' inverted T at nt 40
B36: 1161 (ssDNA)
DNA: B30 DNA
modifications: 2'-F C25; 3'-3' inverted T at nt 40
B37: 1162 (ssDNA)
DNA: B30 DNA
modifications: 2'-F C34; 3'-3' inverted T at nt 40
B38: 1160 (ssDNA)
DNA: B30 DNA
modifications: 2'-F C22; 3'-3' inverted T at nt 40
B39: EV1 (ssDNA)
DNA: B30 DNA
modifications: 2'-OMe A20,G21,C22; 3'-3' inverted T at nt 40
B40: 1296 (ssDNA)
DNA: CAGGCUCGGCACGAGAGCAUCACCATGATCCUG
modifications: 2'-F U6,U20,C21,C30,C31; 2'-OMe C7,G8,G9,C10,A11,A22,C23,C24,A25,U32,G33; 3'-3' inverted T at nt 34
B41: 1297 (ssDNA)
DNA: CAGGCUCGGCACGAGAGCAUCCCAGATCCUG
modifications: 2'-F U6,U20,C21,C28,C29; 2'-OMe C7,G8,G9,C10,A11,C22,C23,A24,U30,G31; 3'-3' inverted T at nt 32
B42: 20t (ssDNA)
DNA: TGGGAGGGCGCGTTCTTCGTGGTTACTTTTAGTCCCGT
modifications: 3'-3' inverted T at nt 38
B43: 36t (ssDNA)
DNA: B30 DNA
modifications: 3'-3' inverted T at nt 40
B44: 41t (ssDNA)
DNA: TACTCAGGGCACTGCAAGCAATTGTGGTCCCAATGGGCTGAGTAT
modifications: 3'-3' inverted T at nt 45

target: T1, PDGF-BB (mature B-chain homodimer) (Homo sapiens, UniProt P01127 P01127:82-190); assay: filter; printed as 0.159 ± 13 pM, unit evidently nM ± pM; conditions: tags: R&D Systems, expressed in E. coli, carrier-free; chain copies: 2 B-chains (stated as BB isoform)
T1 sequence (P01127 82-190, one chain of several): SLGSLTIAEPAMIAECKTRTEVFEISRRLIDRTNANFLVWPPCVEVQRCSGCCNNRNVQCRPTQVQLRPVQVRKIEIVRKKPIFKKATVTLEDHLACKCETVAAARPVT
Description: (§1) Determination of the apparent equilibrium dissociation constants and the dissociation rate constants. The binding of ssDNA ligands at low concentrations to varying concentrations of PDGF was determined by the nitrocellulose filter binding method as described (Green et al. (1995) Chemistry and Biology 2:683-695). […] All ssDNA ligands were heated at 90° C. in binding buffer at high dilution (≈1 nM) for 2 min and cooled on ice prior to further dilution into the protein solution. The binding mixtures were typically incubated for 15 min at 37° C. before partitioning on nitrocellulose filters.

Binder | Kd [nM]
B1 | 0.159

target: PDGF-AB (A-chain/B-chain heterodimer) (Homo sapiens, UniProt P04085;P01127 P04085:87-211,P01127:82-190); assay: filter; conditions: tags: R&D Systems, expressed in E. coli, carrier-free
Sequence (P01127 82-190, chain 2 of 2, other chains not shown): as the sequence (P01127 82-190, one chain of several) above
Description: as §1

Binder | binding signal [Kd ligand/Kd 36t]
B2 | 1
B3 | 0.9
B4 | 0.37
B5 | 0.63
B6 | 1.5
B7 | 607
B8 | 4.4
B9 | 5.8
B10 | 0.72
B11 | 196
B12 | 2.2
B13 | 3.1
B14 | 0.37
B15 | 1.3
B16 | 5.3
B17 | 12.9
B18 | 2.3
B19 | 0.76
B20 | 440
B21 | 281

Binder | binding signal [Kd ligand/Kd 36t]
B22 | 1.3
B23 | 0.45
B24 | 2.4
B25 | 1.4
B26 | 10
B27 | 0.87
B28 | 994
B29 | 4.2
B30 | 0.27
B31 | 0.61
B32 | 1
B33 | 4.5
B34 | 1.5
B35 | 2.9
B36 | 0.22
B37 | 0.52
B38 | 1.4
B39 | 35.1
B40 | 2.1
B41 | 2.9

target: T1, PDGF-BB (mature B-chain homodimer); assay: inhibition; 125I-PDGF-BB binding to alpha-receptor on PAE cells, 4 C; conditions: tags: R&D Systems, expressed in E. coli, carrier-free; chain copies: 2 B-chains (stated as BB isoform); three-way helix junction
Description: Receptor Binding Assay. The binding of ′ ²⁵I-PDGF-AA and ¹²⁵I-PDGF-BB to porcine aortic endothelial (PAE) cells transfected with PDGF α- or β-receptors were performed as described (Heldin et al., (1988) EMBO J. 7:1387-1394). Different concentrations of DNA ligands were added to the cell culture (1.5 cm²) in 0.2 ml of phosphate buffered saline supplemented with 1 mg bovine serum albumin per ml together with ¹²⁵I-PDGF-AA (2 ng, 100,000 cpm) or ¹²⁵I-PDGF-BB (2 ng, 100,000 cpm). After incubation at 4° C. for 90 min, the cell cultures were washed and cell associated radioactivity determined in a g-counter (Heldin et al., (1988) EMBO J. 7:1387-1394).

Binder | IC50 [nM]
B42 | ~1
B43 | ~1
B44 | ~1
